Data set [1] has as its system C/C(=C\c1csc(C)n1)[C@@H]1C[C@@H]2O[C@@H]2CCC[C@H](C)[C@H](O)[C@@H](C)C(=O)C(C)(C)[C@@H](O)CC(=O)O1. Kind of data set: UPLC-PDA glycosylation assay, Michaelis-Menten fit. As to conditions: 10 mM UDP-glucose, 10 mM MgCl2, Tris-HCl pH 7.5, 37 °C, 10 min. The data set is classed as biochemical, Bacillus subtilis. The source says: UPLC-PDA glycosylation assay, Michaelis-Menten fit on YojK

Data set [2] shares this test system. Kind of data set: UPLC-PDA glycosylation assay, Michaelis-Menten fit. As to conditions: 10 mM UDP-glucose, 10 mM MgCl2, Tris-HCl pH 7.5, 37 °C, 10 min. The data set is classed as biochemical, Bacillus licheniformis. From the text:
UPLC-PDA glycosylation assay, Michaelis-Menten fit on YjiC

Data set [3] has the same test system. Kind of data set: UPLC-PDA glycosylation assay, Michaelis-Menten fit. The data set is classed as biochemical, Bacillus atrophaeus. As to conditions: 10 mM UDP-glucose, 10 mM MgCl2, Tris-HCl pH 7.5, 37 °C, 10 min. The source says: UPLC-PDA glycosylation assay, Michaelis-Menten fit on BaGT
A further data set relates to T1, BssGT.
T1 construct: synthetic gene in pET28a, His tag, E. coli BL21(DE3), nickel-purified
Briefly: UPLC-PDA glycosylation assay, Michaelis-Menten fit. As to conditions: 10 mM UDP-glucose, 10 mM MgCl2, Tris-HCl pH 7.5, 37 °C, 10 min; read-out: Acceptor substrate (epothilone A) / K m. The data set is classed as biochemical, Bacillus inaquosorum. From the text:
UPLC-PDA glycosylation assay, Michaelis-Menten fit on BssGT

In another data set the target is T2, BsGT-2 (Bacillus subtilis, UniProt O05496).
T2 construct: gene ydhE; synthetic gene in pET28a, His tag, E. coli BL21(DE3), nickel-purified
T2 sequence (O05496 whole entry): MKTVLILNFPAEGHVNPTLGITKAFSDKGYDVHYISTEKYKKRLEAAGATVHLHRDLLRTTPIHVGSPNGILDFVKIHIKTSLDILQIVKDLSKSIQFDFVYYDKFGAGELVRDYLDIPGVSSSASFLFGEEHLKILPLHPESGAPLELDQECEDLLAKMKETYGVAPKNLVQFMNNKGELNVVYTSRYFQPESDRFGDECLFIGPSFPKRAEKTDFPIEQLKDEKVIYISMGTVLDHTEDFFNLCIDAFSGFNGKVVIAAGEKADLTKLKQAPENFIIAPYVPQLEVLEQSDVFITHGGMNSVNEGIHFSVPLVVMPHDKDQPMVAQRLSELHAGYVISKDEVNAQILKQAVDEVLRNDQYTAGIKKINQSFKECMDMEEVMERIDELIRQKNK
Briefly: LC-MS conversion assay. The format is biochemical. As to conditions: assay mix 0.5 mM epothilone A, 3 mM UDP-glucose, 10 mM MgCl2, Tris-HCl, 400 μg/ml enzyme, no HPLC product peak, Km not determined.

The next data set concerns T3, BcGT-1.
T3 construct: synthetic gene in pET28a, His tag, E. coli BL21(DE3), nickel-purified
Briefly: UPLC-PDA glycosylation assay, Michaelis-Menten fit. The data set is classed as biochemical, Bacillus cereus. Conditions: 10 mM UDP-glucose, 10 mM MgCl2, Tris-HCl pH 7.5, 37 °C, 10 min; read-out: Acceptor substrate (epothilone A) / K m. The source says: UPLC-PDA glycosylation assay, Michaelis-Menten fit on BcGT-1

In data set [4] the test system is C/C(=C\c1csc(C)n1)[C@@H]1C[C@@H]2O[C@@H]2CCC[C@H](C)[C@H](O)[C@@H](C)C(=O)C(C)(C)[C@@H](O)CC(=O)O1. Briefly: UPLC-PDA glycosylation assay, Michaelis-Menten fit. The data set is classed as biochemical, Bacillus velezensis. As to conditions: 10 mM UDP-glucose, 10 mM MgCl2, Tris-HCl pH 7.5, 37 °C, 10 min. From the text:
UPLC-PDA glycosylation assay, Michaelis-Menten fit on BamGT

This is an account of results in article PMC6559208, “Phylogeny‐guided characterization of glycosyltransferases for epothilone glycosylation” (Microbial Biotechnology, 2019).

Regarding “YojK (Bacillus subtilis subsp. subtilis str. 168)”, in data set [1], the Km was found to be 1720.77 ± 161.35 µM, the kcat (usually the maximal rate divided by the concentration of active sites) turned out to be 0.0205 ± 0.00117 s⁻¹ and the kcat/Km (commonly the turnover number divided by the Michaelis constant) is 11.8 M⁻¹ s⁻¹.
Take “YjiC (Bacillus licheniformis DSM 13 = ATCC 14580)”: in data set [2], the Km worked out at 94.58 ± 2.95 µM, the kcat was found to be 0.192 ± 0.00317 s⁻¹ and the kcat/Km came out at 2030 M⁻¹ s⁻¹.
Turning to BaGT (Bacillus atrophaeus 1942), in data set [3], the Km came out at 113.66 ± 10.55 µM, the kcat is 0.113 ± 0.00417 s⁻¹ and the kcat/Km came out at 990 M⁻¹ s⁻¹.
For `C/C(=C\c1csc(C)n1)[C@@H]1C[C@@H]2O[C@@H]2CCC[C@H](C)[C@H](O)[C@@H](C)C(=O)C(C)(C)[C@@H](O)CC(=O)O1` [epothilone A], the Km in the data set with BssGT worked out at 1590 ± 117 µM; in the data set with BcGT-1, 1200 ± 215 µM. Moreover, the “% conversion after 10 h” value on BsGT-2 amounted to 0.03%.
As for BamGT (Bacillus velezensis FZB42), in data set [4], the Km stood at 2245.74 ± 311.96 µM, the kcat stood at 0.0182 ± 0.00117 s⁻¹ and the catalytic efficiency (kcat/Km) turned out to be 8.33 M⁻¹ s⁻¹.
